Patent US20240084039A1

Target: pre-existing anti-drug antibodies (ADA) present in human sera
Assay: ELISA pre-existing ADA binding assay, confirmatory setup, test molecule coated, 20 human sera

| Binder | % positives of total tested serum samples [%] | No of positive serum samples above 30% CCP (serum samples) |
| --- | --- | --- |
| PRO2668 (protein) AFELTQSPSSLSASVGDRVTITCQASESINSRLAWYQQKPGQPPKLLIYDASDLTSGVPSRFSGSGSGTDFTLTISSLQPEDFATYYCQGYGGSSTTTFGCGTKLTVLGGGGGSEVQLVESGGGRVQPGGSLRLSCAASGFSLSSYDMSWVRQAPGKGLAWIGASYASGPTYYASWAKGRFTISRDNSKNTVYLQMNSLRAEDTATYFCARGGWTGTSHSNIWGQGTQVTVSSGGGGSGGGGSGGGGSGGGGSDIQMTQSPSSLSASVGDRVTITCQSSQSVFSNNYLAWFQQKPGQSPKRLIYSASTLASGVPSRFSGSGSGTDFTLTISSLQPEDFATYYCLGSYACSSADCYVFGTGTKVTVLGGGGGSEVQLVESGGGRVQPGGSLRLSCAASGFSLSSYAMNWVRQAPGKCLEWIGHINAGDIAYYATWAKGRFTISRDNSKNTVYLQMNSLRAEDTATYFCARGAGGFSTGPFKLWGQGTQVTVSSGGGGSGGGGSAQQLTQSPSSLSASVGDRVTITCQASQNVWNNNYLSWFQQKPGKPPKLLIVTASTLASGVSSRFSGSGSGTDFTLTISSLQPEDFATYYCAGGFSGEIRAFGCGTKVTVLGGGGGSGGGGSGGGGSGGGGSQSQLVESGGGRVQPGGSLRLSCAVSGLSLSRNAMSWVRQAPGKCLEWIGIILTSGSTYYASWAKGRFTISKDNSKNTVYLQMNSLRAEDTATYFCVRGIASSSLKSFWGQGTQVTVSS | 0 | 0 |
| PRO2909 (scFv) scFv: DIQMTQSPASLSASVGDRVTITCQASQSIGTYLAWYQQKPGKPPKLLIYRAFILASGVPSRFSGSGSGTDFTLTISSLQPEDFATYYCQSNFYSDSTTIGPNAFGTGTKVTVLGGGGGSGGGGSGGGGSGGGGSEVQLVESGGGLVQPGGSLRLSCAASGFSFNSDYWIYWVRQAPGKGLEWIASIYGGSSGNTQYASWAQGRFTISRDNSKNTVYLQMNSLRAEDTAVYFCARGYVDYGGATDLWGQGTQVTVSS | 50 | 10 |
| PRO2906 (scFv) scFv: DIQMTQSPASLSASVGDRVTITCQASQSIGTYLAWYQQKPGKPPKLLIYRAFILASGVPSRFSGSGSGTDFTLTISSLQPEDFATYYCQSNFYSDSTTIGPNAFGTGTKVTVLGGGGGSGGGGSGGGGSGGGGSEVQLVESGGGLVQPGGSLRLSCAASGFSFNSDYWIYWVRQAPGKGLEWIASIYGGSSGNTQYASWAQGRFTISRDNSKNTVYLQMNSLRAEDTATYFCARGYVDYGGATDLWGQGTQVTVSS | 95 | 19 |
| PRO2741 (protein) chain 1: DIQMTQSPSSLSASVGDRVTITCQASESIYSSLAWYQQKPGKAPKLLIYLASTLASGVPSRFSGSGSGTDFTLTISSLQPEDFATYYCQSTDYTTSTHRNSFGTGTKVTVLGGGGGSGGGGSGGGGSGGGGSEVQLVESGGGRVQPGGSLRLSCAASGFSFSTTYYMCWVRQAPGKGLEWIGCTNTASSVRTYYATWAKGRFTISRDNSKNTVYLQMNSLRAEDTATYYCARDMGFADYALNLWGQGTQVTVSSGGGGSGGGGSEVQLVESGGGRVQPGGSLRLSCAASGFSLSSYDMSWVRQAPGKGLAWIGASYASGPTYYASWAKGRFTISRDNSKNTVYLQMNSLRAEDTATYFCARGGWTGTSHSNIWGQGTQVTVSSGGGSGGGSGGGSGEVQLVESGGGRVQPGGSLRLSCAASGFSLSSYAMNWVRQAPGKCLEWIGHINAGDIAYYATWAKGRFTISRDNSKNTVYLQMNSLRAEDTATYFCARGAGGFSTGPFKLWGQGTQVTVSS chain 2: DIQMTQSPSSLSASVGDRVTITCQASESIYSSLAWYQQKPGKAPKLLIYLASTLASGVPSRFSGSGSGTDFTLTISSLQPEDFATYYCQSTDYTTSTHRNSFGTGTKVTVLGGGGGSGGGGSGGGGSGGGGSEVQLVESGGGRVQPGGSLRLSCAASGFSFSTTYYMCWVRQAPGKGLEWIGCTNTASSVRTYYATWAKGRFTISRDNSKNTVYLQMNSLRAEDTATYYCARDMGFADYALNLWGQGTQVTVSSGGGGSGGGGSAFELTQSPSSLSASVGDRVTITCQASESINSRLAWYQQKPGQPPKLLIYDASDLTSGVPSRFSGSGSGTDFTLTISSLQPEDFATYYCQGYGGSSTTTFGCGTKLTVLGGGSGGSDIQMTQSPSSLSASVGDRVTITCQSSQSVFSNNYLAWFQQKPGQSPKRLIYSASTLASGVPSRFSGSGSGTDFTLTISSLQPEDFATYYCLGSYACSSADCYVFGTGTKVTVLG | 15 | 3 |
| PRO2660 (protein) chain 1: DIQMTQSPSSLSASVGDRVTITCQASESIYSSLAWYQQKPGKAPKLLIYLASTLASGVPSRFSGSGSGTDFTLTISSLQPEDFATYYCQSTDYTTSTHRNSFGTGTKVTVLGGGGGSGGGGSGGGGSGGGGSEVQLVESGGGLVQPGGSLRLSCAASGFSFSTTYYMCWVRQAPGKGLEWIGCTNTASSVRTYYATWAKGRFTISRDNSKNTVYLQMNSLRAEDTAVYYCARDMGFADYALNLWGQGTLVTVSSGGGGSGGGGSEVQLVESGGGLVQPGGSLRLSCAASGFSLSSYDMSWVRQAPGKGLAWIGASYASGPTYYASWAKGRFTISRDNSKNTVYLQMNSLRAEDTATYFCARGGWTGTSHSNIWGQGTLVTVSSGGGSGGGSGGGSGEVQLVESGGGLVQPGGSLRLSCAASGFSLSSYAMNWVRQAPGKCLEWIGHINAGDIAYYATWAKGRFTISRDNSKNTVYLQMNSLRAEDTAVYFCARGAGGFSTGPFKLWGQGTLVTVSS chain 2: DIQMTQSPSSLSASVGDRVTITCQASESIYSSLAWYQQKPGKAPKLLIYLASTLASGVPSRFSGSGSGTDFTLTISSLQPEDFATYYCQSTDYTTSTHRNSFGTGTKVTVLGGGGGSGGGGSGGGGSGGGGSEVQLVESGGGLVQPGGSLRLSCAASGFSFSTTYYMCWVRQAPGKGLEWIGCTNTASSVRTYYATWAKGRFTISRDNSKNTVYLQMNSLRAEDTAVYYCARDMGFADYALNLWGQGTLVTVSSGGGGSGGGGSAFELTQSPSSLSASVGDRVTITCQASESINSRLAWYQQKPGQPPKLLIYDASDLTSGVPSRFSGSGSGTDFTLTISSLQPEDFATYYCQGYGGSSTTTFGCGTKLTVLGGGSGGSDIQMTQSPSSLSASVGDRVTITCQSSQSVFSNNYLAWFQQKPGQSPKRLIYSASTLASGVPSRFSGSGSGTDFTLTISSLQPEDFATYYCLGSYACSSADCYVFGTGTKVTVLG | 30 | 6 |
| PRO2924 (scFv) scFv: DIQMTQSPSSLSASVGDRVTITCQASESIYSSLAWYQQKPGKAPKLLIYLASTLASGVPSRFSGSGSGTDFTLTISSLQPEDFATYYCQSTDYTTSTHRNSFGTGTKVTVLGGGGGSGGGGSGGGGSGGGGSEVQLVESGGGLVQPGGSLRLSCAASGFSFSTTYYMCWVRQAPGKGLEWIGCTNTASSVRTYYATWAKGRFTISRDNSKNTVYLQMNSLRAEDTAVYYCARDMGFADYALNLWGQGTQVTVSS | 75 | 15 |
| PRO2921 (scFv) scFv: DIQMTQSPSSLSASVGDRVTITCQASESIYSSLAWYQQKPGKAPKLLIYLASTLASGVPSRFSGSGSGTDFTLTISSLQPEDFATYYCQSTDYTTSTHRNSFGTGTKVTVLGGGGGSGGGGSGGGGSGGGGSEVQLVESGGGLVQPGGSLRLSCAASGFSFSTTYYMCWVRQAPGKGLEWIGCTNTASSVRTYYATWAKGRFTISRDNSKNTVYLQMNSLRAEDTATYYCARDMGFADYALNLWGQGTQVTVSS | 55 | 11 |

Results, then the binder that gave them:

| % positives of total tested serum samples [%] | No of positive serum samples above 30% CCP (serum samples) | Binder |
| --- | --- | --- |
| 40 | 8 | PRO2926 (scFv) scFv: DIQMTQSPASLSASVGDRVTITCQASQSIGTYLAWYQQKPGKPPKLLIYRAFILASGVPSRFSGSGSGTDFTLTISSLQPEDFATYYCQSNFYSDSTTIGPNAFGTGTKVTVLGGGGGSGGGGSGGGGSGGGGSEVQLVESGGGSVQPGGSLRLSCAASGFSFNSDYWIYWVRQAPGKGLEWIASIYGGSSGNTQYASWAQGRFTISRDNSKNTVYLQMNSLRAEDTATYFCARGYVDYGGATDLWGQGTQVTVSS |
| 25 | 5 | PRO2984 (scFv) scFv: DIQMTQSPASLSASVGDRVTITCQASQSIGTYLAWYQQKPGKPPKLLIYRAFILASGVPSRFSGSGSGTDFTLTISSLQPEDFATYYCQSNFYSDSTTIGPNAFGTGTKVTVLGGGGGSGGGGSGGGGSGGGGSEVQLVESGGGSVQPGGSLRLSCAASGFSFNSDYWIYWVRQAPGKGLEWIASIYGGSSGNTQYASWAQGRFTISRDNSKNTVYLQMNSLRAEDTATYFCARGYVDYGGATDLWGQGTTVTVSS |
| 25 | 5 | PRO2925 (scFv) scFv: DIQMTQSPSSLSASVGDRVTITCQASESIYSSLAWYQQKPGKAPKLLIYLASTLASGVPSRFSGSGSGTDFTLTISSLQPEDFATYYCQSTDYTTSTHRNSFGTGTKVTVLGGGGGSGGGGSGGGGSGGGGSEVQLVESGGGSVQPGGSLRLSCAASGFSFSTTYYMCWVRQAPGKGLEWIGCTNTASSVRTYYATWAKGRFTISRDNSKNTVYLQMNSLRAEDTATYYCARDMGFADYALNLWGQGTQVTVSS |
| 25 | 5 | PRO2990 (scFv) scFv: DIQMTQSPSSLSASVGDRVTITCQASESIYSSLAWYQQKPGKAPKLLIYLASTLASGVPSRFSGSGSGTDFTLTISSLQPEDFATYYCQSTDYTTSTHRNSFGTGTKVTVLGGGGGSGGGGSGGGGSGGGGSEVQLVESGGGSVQPGGSLRLSCAASGFSFSTTYYMCWVRQAPGKGLEWIGCTNTASSVRTYYATWAKGRFTISRDNSKNTVYLQMNSLRAEDTATYYCARDMGFADYALNLWGQGTTVTVSS |
